Experimental data reported in publication PMC12260392, “Expanding the diversity of bacterial DNA partitioning: A CTP-independent ParABS system for plasmid partitioning in Streptomyces” (Proceedings of the National Academy of Sciences of the …, 2025).

Experiments:
[1] = target: T1, ParT (Streptomyces coelicolor A3(2) (plasmid SCP2)) (UniProt Q8VWE5); assay: BLI; conditions: BLI: 100 mM Tris-HCl pH 8, 150 mM NaCl, 1 mM MgCl2, 0.005% Tween-20, temperature not given
T1 sequence: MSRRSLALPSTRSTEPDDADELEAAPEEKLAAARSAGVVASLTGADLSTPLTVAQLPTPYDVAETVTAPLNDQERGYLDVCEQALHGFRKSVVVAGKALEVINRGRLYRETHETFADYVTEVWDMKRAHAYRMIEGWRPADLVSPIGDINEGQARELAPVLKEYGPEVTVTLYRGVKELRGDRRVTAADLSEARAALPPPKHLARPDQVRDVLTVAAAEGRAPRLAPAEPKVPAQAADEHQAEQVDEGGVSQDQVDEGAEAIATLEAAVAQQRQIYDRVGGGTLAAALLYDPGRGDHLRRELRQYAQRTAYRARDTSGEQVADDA

[2] = target: T1, ParT (Streptomyces coelicolor A3(2) (plasmid SCP2)); assay: SPR; conditions: 4 C; kinetics; DNA fragment assumed as in BLI; BLI: 100 mM Tris-HCl pH 8, 150 mM NaCl, 1 mM MgCl2, 0.005% Tween-20, temperature not given; SPR at 4 C on Biacore 8K
[3] = tested on: ParT (G87P) (Streptomyces coelicolor A3(2) (plasmid SCP2)); assay: BLI; conditions: BLI: 100 mM Tris-HCl pH 8, 150 mM NaCl, 1 mM MgCl2, 0.005% Tween-20, temperature not given; SPR at 4 C on Biacore 8K
ParT [4] = target: T2, ParT (Streptomyces coelicolor A3(2) (plasmid …, UniProt Q8VWE5 1-325)); assay: BLI; up to 2 uM ParT; BLI: 100 mM Tris-HCl pH 8, 150 mM NaCl, 1 mM MgCl2, 0.005% Tween-20, temperature not given; SPR at 4 C on Biacore 8K; conditions: protein: recombinant; tags: C-terminal His6; chain copies: 2; label: 5' biotin on strand 1 (BLI); blunt
T2 sequence: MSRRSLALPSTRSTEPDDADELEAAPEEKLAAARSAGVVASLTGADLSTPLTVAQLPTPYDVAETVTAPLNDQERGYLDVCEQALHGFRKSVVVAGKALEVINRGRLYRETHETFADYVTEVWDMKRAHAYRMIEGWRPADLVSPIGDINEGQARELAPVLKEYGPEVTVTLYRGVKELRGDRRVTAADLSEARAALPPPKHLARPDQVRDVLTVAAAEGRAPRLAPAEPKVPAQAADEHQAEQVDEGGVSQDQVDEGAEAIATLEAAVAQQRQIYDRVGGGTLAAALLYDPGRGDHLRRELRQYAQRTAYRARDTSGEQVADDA

[5] = target: ParA-His6, ParA of plasmid SCP2 (Streptomyces coelicolor)
[6] = target: the molecule itself; assay: not stated; apo-ParT in solution (SI Appendix, Fig. S8A); the method is not told in the main text
ParT [7] = target: T2, ParT; assay: BLI; no NTP; equilibrium analysis; BLI: 100 mM Tris-HCl pH 8, 150 mM NaCl, 1 mM MgCl2, 0.005% Tween-20, temperature not given; SPR at 4 C on Biacore 8K; conditions: protein: recombinant; tags: C-terminal His6; chain copies: 2; label: 5' biotin on strand 1 (BLI); blunt

40-bp parS+10 duplex
Kd ([1]; no NTP, equilibrium analysis, SPR at 4 C on Biacore 8K): 580 nM
Kd [2]: 730 nM

180-bp parS DNA cut with BamHI or EcoRI
binding signal (fraction of closed-loop signal) [3]: 1
binding signal (fraction of closed-loop signal) ([1]; 1 uM ParT, free DNA end by BamHI or EcoRI, SPR at 4 C on Biacore …): 0.2

B1: 40-bp scrambled parS duplex (dsDNA)
DNA 1: ATCGGGCACCTTAGGGCAATCGTAAGTTCGGCGCACGACC
DNA 2: GGTCGTGCGCCGAACTTACGATTGCCCTAAGGTGCCCGAT
binding result (ParT [4]): no binding

B2: biotinylated ParT (WT), ParB-like protein of plasmid SCP2 (natural protein)
chain: MSRRSLALPSTRSTEPDDADELEAAPEEKLAAARSAGVVASLTGADLSTPLTVAQLPTPYDVAETVTAPLNDQERGYLDVCEQALHGFRKSVVVAGKALEVINRGRLYRETHETFADYVTEVWDMKRAHAYRMIEGWRPADLVSPIGDINEGQARELAPVLKEYGPEVTVTLYRGVKELRGDRRVTAADLSEARAALPPPKHLARPDQVRDVLTVAAAEGRAPRLAPAEPKVPAQAADEHQAEQVDEGGVSQDQVDEGAEAIATLEAAVAQQRQIYDRVGGGTLAAALLYDPGRGDHLRRELRQYAQRTAYRARDTSGEQVADDA
modifications: biotin (site and way of biotinylation not stated)
ATPase activity of 0.5 µM ParA with ATP, nonspecific DNA and ParT in increasing molar excess (ATP/ParA/hour) [5]: 6

B3: ParT (WT), purified, unlabelled (natural protein, Streptomyces coelicolor, UniProt Q8VWE5 1-325, looked up)
chain: MSRRSLALPSTRSTEPDDADELEAAPEEKLAAARSAGVVASLTGADLSTPLTVAQLPTPYDVAETVTAPLNDQERGYLDVCEQALHGFRKSVVVAGKALEVINRGRLYRETHETFADYVTEVWDMKRAHAYRMIEGWRPADLVSPIGDINEGQARELAPVLKEYGPEVTVTLYRGVKELRGDRRVTAADLSEARAALPPPKHLARPDQVRDVLTVAAAEGRAPRLAPAEPKVPAQAADEHQAEQVDEGGVSQDQVDEGAEAIATLEAAVAQQRQIYDRVGGGTLAAALLYDPGRGDHLRRELRQYAQRTAYRARDTSGEQVADDA
notes: ParT (SCP2.04c), ParB-like protein encoded on plasmid SCP2 of Streptomyces coelicolor, UniProt Q8VWE5; the rows with itself tell the dimer; also called apo-ParT; SCP2.04c; source: purified
stoichiometry N [6]: 2

B4: 40-bp parS duplex (dsDNA)
DNA 1: GGCCGACCTCGTGTCTCCAATTGGAGACATCAACGAGGGC
DNA 2: GCCCTCGTTGATGTCTCCAATTGGAGACACGAGGTCGGCC
Kd (ParT [7]): 680 ± 200 nM
